Assay results: patent publication US9044511B2, “Peptide” (Marealis AS, priority 2010, dated 2015)
Values joined by “and” are separate entries in the source; they are usually repeats but may differ in a detail not shown here. Equal entries are not always repeated. Where two headings read alike, the source gives them in different places. Peptide text beside a SMILES is read from it.

T1: ACE (Sigma A 6778) (Oryctolagus cuniculus, UniProt P12822)
T1 construct: purchased Sigma A 6778
T1 sequence (P12822 34-1310): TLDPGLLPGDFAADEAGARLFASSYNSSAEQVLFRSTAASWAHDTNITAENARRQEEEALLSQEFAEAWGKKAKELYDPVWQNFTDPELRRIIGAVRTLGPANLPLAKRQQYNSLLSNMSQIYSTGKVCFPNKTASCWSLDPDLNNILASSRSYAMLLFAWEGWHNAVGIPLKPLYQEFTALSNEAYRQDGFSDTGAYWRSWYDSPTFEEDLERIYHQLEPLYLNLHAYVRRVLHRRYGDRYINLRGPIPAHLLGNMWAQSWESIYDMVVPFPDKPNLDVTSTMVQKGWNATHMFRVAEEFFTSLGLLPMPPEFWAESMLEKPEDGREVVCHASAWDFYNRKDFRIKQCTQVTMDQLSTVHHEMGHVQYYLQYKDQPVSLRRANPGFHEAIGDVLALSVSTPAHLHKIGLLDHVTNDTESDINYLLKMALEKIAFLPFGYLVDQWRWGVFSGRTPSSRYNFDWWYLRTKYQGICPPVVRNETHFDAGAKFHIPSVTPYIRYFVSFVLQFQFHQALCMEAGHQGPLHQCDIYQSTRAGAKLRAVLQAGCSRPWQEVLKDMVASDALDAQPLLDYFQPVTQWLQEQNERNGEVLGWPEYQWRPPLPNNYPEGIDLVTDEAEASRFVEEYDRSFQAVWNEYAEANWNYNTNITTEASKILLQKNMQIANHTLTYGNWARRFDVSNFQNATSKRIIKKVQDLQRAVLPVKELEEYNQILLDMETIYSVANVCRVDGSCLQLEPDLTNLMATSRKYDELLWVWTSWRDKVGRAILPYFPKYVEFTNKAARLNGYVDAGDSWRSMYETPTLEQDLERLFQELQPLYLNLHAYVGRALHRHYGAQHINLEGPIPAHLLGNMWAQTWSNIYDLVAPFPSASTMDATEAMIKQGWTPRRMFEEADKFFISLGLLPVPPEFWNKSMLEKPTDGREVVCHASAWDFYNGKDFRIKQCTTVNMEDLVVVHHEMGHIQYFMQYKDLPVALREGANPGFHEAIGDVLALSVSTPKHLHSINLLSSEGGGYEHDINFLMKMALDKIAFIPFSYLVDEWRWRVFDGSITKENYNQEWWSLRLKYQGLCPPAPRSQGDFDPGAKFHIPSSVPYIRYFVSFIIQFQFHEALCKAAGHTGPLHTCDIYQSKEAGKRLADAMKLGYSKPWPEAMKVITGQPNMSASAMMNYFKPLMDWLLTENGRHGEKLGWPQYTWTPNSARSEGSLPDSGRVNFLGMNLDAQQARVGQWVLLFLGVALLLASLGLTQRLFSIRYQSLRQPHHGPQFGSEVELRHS

T2: Angiotensin I-converting enzyme (ACE) (Sigma A 6778) (UniProt P12822 34-1310, limits assumed)
T2 sequence (looked up): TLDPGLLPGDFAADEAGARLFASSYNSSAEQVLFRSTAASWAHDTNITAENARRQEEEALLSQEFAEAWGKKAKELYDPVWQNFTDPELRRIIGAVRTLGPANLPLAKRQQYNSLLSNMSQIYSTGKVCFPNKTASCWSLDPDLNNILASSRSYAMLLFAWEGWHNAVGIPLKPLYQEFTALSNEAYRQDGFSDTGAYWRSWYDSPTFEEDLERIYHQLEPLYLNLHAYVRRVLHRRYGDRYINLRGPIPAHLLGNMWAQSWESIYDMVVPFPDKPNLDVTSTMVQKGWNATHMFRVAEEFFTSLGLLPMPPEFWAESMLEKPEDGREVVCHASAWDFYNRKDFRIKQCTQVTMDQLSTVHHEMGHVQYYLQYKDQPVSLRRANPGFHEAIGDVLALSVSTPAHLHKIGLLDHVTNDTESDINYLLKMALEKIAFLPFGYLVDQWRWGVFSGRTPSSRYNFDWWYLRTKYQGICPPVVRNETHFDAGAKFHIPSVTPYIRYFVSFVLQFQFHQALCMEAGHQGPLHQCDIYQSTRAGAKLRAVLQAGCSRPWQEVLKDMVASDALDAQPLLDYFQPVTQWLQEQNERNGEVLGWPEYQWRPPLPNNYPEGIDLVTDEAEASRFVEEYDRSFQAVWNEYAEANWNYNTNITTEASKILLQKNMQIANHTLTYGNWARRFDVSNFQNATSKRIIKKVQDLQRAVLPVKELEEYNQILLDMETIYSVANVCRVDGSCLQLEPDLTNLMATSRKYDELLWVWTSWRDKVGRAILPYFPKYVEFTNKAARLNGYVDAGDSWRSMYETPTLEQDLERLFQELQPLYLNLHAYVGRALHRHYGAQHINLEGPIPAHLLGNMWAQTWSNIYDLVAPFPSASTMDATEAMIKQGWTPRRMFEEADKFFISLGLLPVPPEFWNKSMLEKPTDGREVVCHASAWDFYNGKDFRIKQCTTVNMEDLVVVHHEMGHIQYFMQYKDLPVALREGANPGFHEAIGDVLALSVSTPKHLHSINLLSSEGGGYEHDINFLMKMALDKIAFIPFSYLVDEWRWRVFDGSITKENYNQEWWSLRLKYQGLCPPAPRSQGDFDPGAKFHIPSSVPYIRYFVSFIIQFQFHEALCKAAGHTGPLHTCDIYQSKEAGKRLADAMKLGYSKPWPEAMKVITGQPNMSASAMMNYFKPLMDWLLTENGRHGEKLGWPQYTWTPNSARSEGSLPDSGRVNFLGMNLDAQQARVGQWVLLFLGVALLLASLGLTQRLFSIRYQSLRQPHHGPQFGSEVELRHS

T3: ACE from rabbit lung acetone extract (rabbit, UniProt P12822 34-1310, limits assumed)
T3 sequence (looked up): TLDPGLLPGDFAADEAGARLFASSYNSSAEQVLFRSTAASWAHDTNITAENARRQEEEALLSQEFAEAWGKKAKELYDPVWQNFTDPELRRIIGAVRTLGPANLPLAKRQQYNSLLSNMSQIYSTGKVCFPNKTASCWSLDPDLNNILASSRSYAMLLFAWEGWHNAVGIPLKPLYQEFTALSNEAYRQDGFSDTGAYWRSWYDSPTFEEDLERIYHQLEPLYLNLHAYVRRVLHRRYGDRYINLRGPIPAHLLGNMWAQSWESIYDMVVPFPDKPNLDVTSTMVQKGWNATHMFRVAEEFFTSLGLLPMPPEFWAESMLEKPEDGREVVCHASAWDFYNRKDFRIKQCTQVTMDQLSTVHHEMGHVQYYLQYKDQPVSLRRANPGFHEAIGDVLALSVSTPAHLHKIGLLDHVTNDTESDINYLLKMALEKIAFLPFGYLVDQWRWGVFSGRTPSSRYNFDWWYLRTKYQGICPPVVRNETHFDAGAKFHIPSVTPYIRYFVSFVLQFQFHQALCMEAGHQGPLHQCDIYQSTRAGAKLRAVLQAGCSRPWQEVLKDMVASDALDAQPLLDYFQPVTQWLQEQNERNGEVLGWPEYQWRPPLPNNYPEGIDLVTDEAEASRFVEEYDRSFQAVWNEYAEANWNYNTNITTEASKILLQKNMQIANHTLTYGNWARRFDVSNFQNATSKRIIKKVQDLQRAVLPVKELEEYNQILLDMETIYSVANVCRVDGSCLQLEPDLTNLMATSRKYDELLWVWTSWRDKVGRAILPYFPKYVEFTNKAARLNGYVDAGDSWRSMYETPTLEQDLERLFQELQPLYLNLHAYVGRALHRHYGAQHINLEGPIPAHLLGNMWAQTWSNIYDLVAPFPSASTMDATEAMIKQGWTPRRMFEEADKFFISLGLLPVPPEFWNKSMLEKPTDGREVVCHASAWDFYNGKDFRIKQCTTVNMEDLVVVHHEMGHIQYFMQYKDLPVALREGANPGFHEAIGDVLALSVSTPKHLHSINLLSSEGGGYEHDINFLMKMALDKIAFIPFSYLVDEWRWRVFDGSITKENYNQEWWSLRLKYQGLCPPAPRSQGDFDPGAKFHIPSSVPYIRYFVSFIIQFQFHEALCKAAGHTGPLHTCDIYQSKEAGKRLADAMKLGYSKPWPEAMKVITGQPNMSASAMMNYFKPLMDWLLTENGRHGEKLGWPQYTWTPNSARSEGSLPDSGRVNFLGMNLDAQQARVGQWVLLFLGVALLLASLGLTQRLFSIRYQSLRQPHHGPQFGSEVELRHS


Experiments:
ACE (Sigma A 6778) = molecular target: T1, ACE (Sigma A 6778); assay: ACE-inhibitory activity, HHL substrate, hippuric acid by HPLC (method of Dragnes et al. / Cushman and Cheung); assay type: biochemical
Description: ACE-inhibitory activity may be assayed using known methods, for example based on the method reported by Cushman and Cheung (1971) by measuring the end product hippuric acid (HA) from the enzymatic reaction between ACE (Sigma A 6778) and the substrate HHL (Sigma H 1635). (CUSHMAN, D. W. & CHEUNG, H. S. (1971). Concentrations of Angiotensin-Converting Enzyme in Tissues of Rat. Biochimica Et Biophysica Acta 250(1), 261-265 and Dragnes et al. J Food Composition and Analysis 2009; 22: 714-17). A different suitable assay is disclosed by Vermeirssen et al. (2002), J. Biochem Biophys. Methods 51 (2002), pages 75-87, which is incorporated herein by reference. Briefly, this is a spectrophotometric method in which ACE inhibition is measured using the substrate furanacryloyl-Phe-Gly-Gly and rabbit lung acetone extract as the ACE source. The IC50 may be determined.
An FSY peptide was analysed via an enzyme assay wherein ACE produces hippuric acid (HA) from the substrate hippuryl-histidine-leucine (HHL). The HA concentration was determined by quantitative HPLC analyses and a decreased concentration was correlated with inhibitory effect. ACE-inhibitory activity was determined based on the method reported by Cushman and Cheung (1971) by measuring the end product hippuric acid (HA) from the enzymatic reaction between ACE (Sigma A 6778) and the substrate HHL (Sigma H 1635), essentially as described in Dragnes et al. J Food Composition and Analysis 2009; 22: 714-17. A 100 μl volume with 2 mM HHL in 100 mM sodium borate buffer pH 8,3 was pre-incubated at 37° C. for 30 minutes with 25 μl inhibitor (FSY peptide diluted in Sodium borate buffer). Then the assay was initiated by adding 50 μl ACE (10 mU). The enzymatic reaction was stopped by addition of 215 μl 1 M HCl.
Quantitative HPLC analyses were performed on a Shimadzu (Shimadzu Corporation, Japan), using a Symmetry-Shield reverse phase C-18 Intelligent Speed column. The HA was eluted at ambient temperature using a mobile phase that consisted of 0.05% aqueous trifluoroacetic acid and HPLC-grade acetonitrile. A 2 min linear gradient was used, beginning after 0.5 min isocratic elution with 5% acetonitrile and ending with 90% acetonitrile. The flow-rate was maintained at 2 mL min ? 7 1 and the UV absorption was measured at 228 nm.
Determinations of IC50 values depend on the precise assay conditions, which makes it difficult to make meaningful comparisons between IC50 values determined in separate assays. A comparative analysis was therefore carried out to compare the ACE-inhibitory activity of the FSY peptide to known ACE-inhibitory peptides. ACE-inhibitory activity was assayed using the method of Dragnes et al. described in Example 1.

[1] = molecular target: T2, Angiotensin I-converting enzyme (ACE) …; assay: cell-based or functional assay
[2] = molecular target: T3, ACE from rabbit lung acetone extract; assay: cell-based or functional assay
[3] = molecular target: T2, Angiotensin I-converting enzyme (ACE) …; assay: cell-based or functional assay; remark: listed apart in the source
[4] = comparative analysis, read-out: IC50 in μg/ml (converted)

| IC50 (ACE (Sigma A 6778); [4]) [µM] | IC50 in µM (ACE inhibition, method of Dragnes et al.) [1] [µM] | IC50 in µg/ml (ACE inhibition, method of Dragnes et al.) [1] [µg/mL] | IC50 of ACE inhibition (method of Vermeirssen et al.) [2] [µM] | Molecule | further results |
| --- | --- | --- | --- | --- | --- |
| 12.8 | – | – | – | CC(C)[C@H](N)C(=O)N[C@@H](Cc1ccc(O)cc1)C(=O)O [VY, reference compound] (H-Val-Tyr-OH; N-terminus and C-terminus assumed) | – |
| 2.17 | – | – | – | N[C@@H](Cc1ccccc1)C(=O)N[C@@H](CO)C(=O)N[C@@H](Cc1ccc(O)cc1)C(=O)O [FSY] (H-Phe-Ser-Tyr-OH; N-terminus and C-terminus assumed) | IC50 (ACE (Sigma A 6778); comparative analysis, read-out: IC50): 2.2 µM; IC50 (ACE (Sigma A 6778); typical measurements, read-out: IC50 with respect to ACE inhibition, method of Dragnes et al.): ~2.2 µM |
| – | 3.2 | 1.04 | – | IPP | – |
| – | – | – | ~274 | FTY [FTY peptide] | IC50 of ACE inhibition (method of Dragnes et al.) [3]: ~59 µM |
| – | 13 | 3.6 | – | VY | – |
| – | 2.2 | 0.9 | ~7.7 | FSY [FSY peptide] | IC50 of ACE inhibition (hippuric acid from HHL, HPLC; method of Dragnes et al.) [3]: ~4 µM and 1.7 µM and ~2.2 µM |
